Data on 2 molecules can be found in patent publication US20100047228A1.

Targets include delta-plasmin (human) (UniProt P00747); mini-plasmin (human) (UniProt P00747); micro-plasmin (UniProt P00747); plasmin (human) (UniProt P00747).
Holding throughout (test): cell-based or functional assay

Chain of micro-plasmin (P00747 562-810 limits assumed): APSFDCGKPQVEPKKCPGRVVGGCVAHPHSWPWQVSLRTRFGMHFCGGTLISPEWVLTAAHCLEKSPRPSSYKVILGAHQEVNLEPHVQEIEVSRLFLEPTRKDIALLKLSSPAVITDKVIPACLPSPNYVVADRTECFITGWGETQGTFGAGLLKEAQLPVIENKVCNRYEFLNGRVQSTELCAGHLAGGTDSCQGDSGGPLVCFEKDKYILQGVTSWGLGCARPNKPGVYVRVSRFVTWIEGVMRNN
Chain of delta-plasmin (human) (P00747 other isoform, or with tags, fused parts or gaps mutant limits assumed): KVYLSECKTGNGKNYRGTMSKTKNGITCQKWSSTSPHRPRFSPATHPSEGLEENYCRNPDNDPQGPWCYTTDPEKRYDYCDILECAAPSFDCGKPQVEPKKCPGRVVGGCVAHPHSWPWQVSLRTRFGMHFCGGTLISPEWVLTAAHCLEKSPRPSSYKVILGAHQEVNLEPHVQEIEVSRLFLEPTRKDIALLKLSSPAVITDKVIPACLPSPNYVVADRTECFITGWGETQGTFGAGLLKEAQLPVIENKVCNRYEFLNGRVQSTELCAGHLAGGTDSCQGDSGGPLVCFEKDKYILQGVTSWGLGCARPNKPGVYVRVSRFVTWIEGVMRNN
Chain of mini-plasmin (human) (P00747 462-580, chain 1 of 2): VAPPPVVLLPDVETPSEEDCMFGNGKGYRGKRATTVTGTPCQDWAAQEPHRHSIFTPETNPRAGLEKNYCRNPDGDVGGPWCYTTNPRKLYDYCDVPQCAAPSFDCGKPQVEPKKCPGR
Chain of mini-plasmin (human) (P00747 581-810, chain 2 of 2): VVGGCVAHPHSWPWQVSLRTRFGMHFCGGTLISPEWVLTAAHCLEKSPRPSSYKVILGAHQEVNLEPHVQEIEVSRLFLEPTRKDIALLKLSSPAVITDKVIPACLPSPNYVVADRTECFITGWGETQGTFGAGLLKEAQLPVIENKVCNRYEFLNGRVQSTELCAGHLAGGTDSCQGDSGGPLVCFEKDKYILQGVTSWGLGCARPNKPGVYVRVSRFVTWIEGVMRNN
Chain of plasmin (human) (P00747 20-580, chain 1 of 2): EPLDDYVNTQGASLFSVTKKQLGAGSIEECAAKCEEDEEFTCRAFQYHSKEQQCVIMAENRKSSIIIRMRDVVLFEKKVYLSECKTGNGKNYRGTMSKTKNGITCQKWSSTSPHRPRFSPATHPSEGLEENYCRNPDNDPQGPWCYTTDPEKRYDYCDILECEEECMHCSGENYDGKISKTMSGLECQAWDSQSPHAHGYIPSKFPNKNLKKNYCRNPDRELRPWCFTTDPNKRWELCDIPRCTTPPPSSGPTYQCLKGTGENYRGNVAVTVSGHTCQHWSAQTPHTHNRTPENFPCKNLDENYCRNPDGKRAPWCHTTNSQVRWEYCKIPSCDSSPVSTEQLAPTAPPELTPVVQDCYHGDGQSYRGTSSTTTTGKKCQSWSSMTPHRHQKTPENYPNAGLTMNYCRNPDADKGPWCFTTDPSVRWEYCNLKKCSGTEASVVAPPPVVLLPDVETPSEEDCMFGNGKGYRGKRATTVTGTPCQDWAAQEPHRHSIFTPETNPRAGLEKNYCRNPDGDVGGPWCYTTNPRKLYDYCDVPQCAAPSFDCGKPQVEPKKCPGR
Chain of plasmin (human) (P00747 581-810, chain 2 of 2): as the sequence (P00747 581-810, chain 2 of 2) above

B1: α2-antiplasmin (protein, UniProt P08697 40-491, looked up)
chain: NQEQVSPLTLLKLGNQEPGGQTALKSPPGVCSRDPTPEQTHRLARAMMAFTADLFSLVAQTSTCPNLILSPLSVALALSHLALGAQNHTLQRLQQVLHAGSGPCLPHLLSRLCQDLGPGAFRLAARMYLQKGFPIKEDFLEQSEQLFGAKPVSLTGKQEDDLANINQWVKEATEGKIQEFLSGLPEDTVLLLLNAIHFQGFWRNKFDPSLTQRDSFHLDEQFTVPVEMMQARTYPLRWFLLEQPEIQVAHFPFKNNMSFVVLVPTHFEWNVSQVLANLSWDTLHPPLVWERPTKVRLPKLYLKHQMDLVATLSQLGLQELFQAPDLRGISEQSLVVSGVQHQSTLELSEVGVEAAAATSIAMSRMSLSSFSVNRPFLFFIFEDTTGLPLFVGSVRNPNPSAPRELKEQQDSPGNKDFLQSLKGFPRGDKLFGPDLKLVPPMEEDYPQFGSPK
In the experiment with delta-plasmin (human), B1 yielded an inhibition rate of 1e+07 M⁻¹ s⁻¹; an inhibition rate, fold against micro-plasmin or mini-plasmin of 40 fold; a rate of inhibition of 1.1e+07 M⁻¹ s⁻¹. Also, the inhibition rate with mini-plasmin (human) is 240000 M⁻¹ s⁻¹. Further, in the experiment with micro-plasmin, the inhibition rate came out at 180000 M⁻¹ s⁻¹ and the inhibition rate (second of two separate experiments) was determined as 310000 M⁻¹ s⁻¹.

B2: α2-macroglobulin (protein, UniProt P01023 24-1474, looked up)
chain: SVSGKPQYMVLVPSLLHTETTEKGCVLLSYLNETVTVSASLESVRGNRSLFTDLEAENDVLHCVAFAVPKSSSNEEVMFLTVQVKGPTQEFKKRTTVMVKNEDSLVFVQTDKSIYKPGQTVKFRVVSMDENFHPLNELIPLVYIQDPKGNRIAQWQSFQLEGGLKQFSFPLSSEPFQGSYKVVVQKKSGGRTEHPFTVEEFVLPKFEVQVTVPKIITILEEEMNVSVCGLYTYGKPVPGHVTVSICRKYSDASDCHGEDSQAFCEKFSGQLNSHGCFYQQVKTKVFQLKRKEYEMKLHTEAQIQEEGTVVELTGRQSSEITRTITKLSFVKVDSHFRQGIPFFGQVRLVDGKGVPIPNKVIFIRGNEANYYSNATTDEHGLVQFSINTTNVMGTSLTVRVNYKDRSPCYGYQWVSEEHEEAHHTAYLVFSPSKSFVHLEPMSHELPCGHTQTVQAHYILNGGTLLGLKKLSFYYLIMAKGGIVRTGTHGLLVKQEDMKGHFSISIPVKSDIAPVARLLIYAVLPTGDVIGDSAKYDVENCLANKVDLSFSPSQSLPASHAHLRVTAAPQSVCALRAVDQSVLLMKPDAELSASSVYNLLPEKDLTGFPGPLNDQDNEDCINRHNVYINGITYTPVSSTNEKDMYSFLEDMGLKAFTNSKIRKPKMCPQLQQYEMHGPEGLRVGFYESDVMGRGHARLVHVEEPHTETVRKYFPETWIWDLVVVNSAGVAEVGVTVPDTITEWKAGAFCLSEDAGLGISSTASLRAFQPFFVELTMPYSVIRGEAFTLKATVLNYLPKCIRVSVQLEASPAFLAVPVEKEQAPHCICANGRQTVSWAVTPKSLGNVNFTVSAEALESQELCGTEVPSVPEHGRKDTVIKPLLVEPEGLEKETTFNSLLCPSGGEVSEELSLKLPPNVVEESARASVSVLGDILGSAMQNTQNLLQMPYGCGEQNMVLFAPNIYVLDYLNETQQLTPEIKSKAIGYLNTGYQRQLNYKHYDGSYSTFGERYGRNQGNTWLTAFVLKTFAQARAYIFIDEAHITQALIWLSQRQKDNGCFRSSGSLLNNAIKGGVEDEVTLSAYITIALLEIPLTVTHPVVRNALFCLESAWKTAQEGDHGSHVYTKALLAYAFALAGNQDKRKEVLKSLNEEAVKKDNSVHWERPQKPKAPVGHFYEPQAPSAEVEMTSYVLLAYLTAQPAPTSEDLTSATNIVKWITKQQNAQGGFSSTQDTVVALHALSKYGAATFTRTGKAAQVTIQSSGTFSSKFQVDNNNRLLLQQVSLPELPGEYSMKVTGEGCVYLQTSLKYNILPEKEEFPFALGVQTLPQTCDEPKAHTSFQISLSVSYTGSRSASNMAIVDVKMVSGFIPLKPTVKMLERSNHVSRTEVSSNHVLIYLDKVSNQTLSLFFTVLQDVPVRDLKPAIVKVYDYYETDEFAIAEYNAPCSKDLGNA
In the case of B2, the inhibition rate in the experiment with delta-plasmin (human) was 760000 M⁻¹ s⁻¹; with mini-plasmin (human), 750000 M⁻¹ s⁻¹; in the experiment with micro-plasmin it was 780000 M⁻¹ s⁻¹; with plasmin (human), 650000 M⁻¹ s⁻¹.
